Data from PMC9943657, “Structural basis for topological regulation of Tn3 resolvase” (Nucleic Acids Research, 2021).

Biological target: the molecule itself
Assay: crystal structure; Form I crystals, P4(3)2(1)2, 3.4 Å; Tn3 resolvase mixed with site III DNA duplex in a 2:1.25 molar ratio; one dimer-site III DNA complex in the asymmetric unit; step: two subunits in the DNA-bound dimer

B1: Tn3 resolvase (wild-type, with SHHHHHH added after the natural C-terminus) (enzyme, transposon Tn3, UniProt P0ADI2 1-185, looked up)
chain: MRIFGYARVSTSQQSLDIQIRALKDAGVKANRIFTDKASGSSTDREGLDLLRMKVEEGDVILVKKLDRLGRDTADMIQLIKEFDAQGVAVRFIDDGISTDGDMGQMVVTILSAVAQAERRRILERTNEGRQEAKLKGIKFGRRRTVDRNVVLTLHQKGTGATEIAHQLSIARSTVYKILEDERAS
notes: Tn3 resolvase, wild type, encoded by the Tn3 transposon; GenBank CAA23885.1; The 7 C-terminal residues (SHHHHHH) were disordered in the crystal structure; also called WT Tn3 resolvase; source: E. coli Rosetta DE3 pLysS from plasmid pSA1121; not shown: SHHHHHH (Ser-His6), C-terminal, kept
B1: binds.
